Source: paper PMC8347620, “Arabidopsis G-Protein β Subunit AGB1 Negatively Regulates DNA Binding of MYB62, a Suppressor in the Gibberellin Pathway”

Molecular target: T1, MBP-MYB62 (Arabidopsis thaliana, UniProt Q9C9G7 1-286)
T1 sequence: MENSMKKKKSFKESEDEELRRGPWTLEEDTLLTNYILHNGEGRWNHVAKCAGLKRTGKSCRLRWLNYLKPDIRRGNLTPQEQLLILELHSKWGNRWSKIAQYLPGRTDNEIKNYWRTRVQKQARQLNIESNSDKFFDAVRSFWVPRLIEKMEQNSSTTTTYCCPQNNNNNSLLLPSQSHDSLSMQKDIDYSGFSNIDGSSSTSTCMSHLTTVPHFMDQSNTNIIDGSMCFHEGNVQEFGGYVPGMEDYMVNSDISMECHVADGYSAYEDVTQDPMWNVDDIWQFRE
Test: EMSA; EMSA: 2.5% glycerol, 50 mM KCl, 5 mM MgCl2, 10 mM EDTA, 30 min, room temperature; pH not stated
Details: protein: recombinant; tags: MBP (pMAL-c2x); label: biotin on both strands (BIO printed before each oligo); blunt

B1: ProGA2ox7 probe (MYB element) (dsDNA)
DNA 1: AAGCCCTTGGTTGGGGATGG
DNA 2: CCATCCCCAACCAAGGGCTT
Question: Does B1 bind?
Answer: binds
